Tested on: MS2 coat protein
Test: apparent KD of MS2 coat protein; higher = weaker reporter binding
Conditions: Eterna round: R107
Protocol: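 RNA-MaP round R107: designed RNA switches with theophylline, tryptophan, arginine or FMN aptamers are transcribed on-chip within common flanks. They are titrated with SNAP-549-labelled MS2 coat protein in RNA-MaP buffer (100 mM Tris pH 7.5, 80 mM KCl, 4 mM MgCl2), without ligand or with the indicated ligand. Median apparent KD per design.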

[1] = input ligand: theophylline 20 uM
[2] = input ligand: theophylline 2 mM
[3] = input ligand: tryptophan 2.4 mM

Sequence | apparent KD of MS2 coat protein (input ligand: arginine 13.2 mM) | apparent KD of MS2 coat protein (input ligand: none) | apparent KD of MS2 coat protein [1] | apparent KD of MS2 coat protein [2] | apparent KD of MS2 coat protein [3]
GGCUGUCAUAGGAGGUGAAAUAUACUCGAAGGAGCGUCAUAGUAGGCAGGUAGGUCGCGAGACAUGAGGAUCACCCAUGUAGAGA [yyumullin] | 38.9 nM | 53.9 nM | 162 nM | 67.7 nM | 56.4 nM
AGCCCAUUACAUGAGGAUCACCCAUGUGAUACCAGUCAGGAAACUGACCCUUGGCAGCGCAUGAGGAUCACCCAUGCGCUGGGCA [Omei Theo A Exc A v6] | 10 nM |  | 11.7 nM |  | 12.2 nM
UCGCCCGGGUCGGCCGCCACUGAGGUGAUAUGACAUGAGGAUCACCCAUGUUGUCAUGUGGAACAUAGGACCGGGACCCGGGCGA [Exclusion - Tryptophan B Attempt #2 (HarryS)] | 15.7 nM | 18.5 nM | 47.6 nM | 19.6 nM | 17.8 nM
ACAUUAGUUGGCGAUACCAGCUAUAGGCCUUCUGGGCGACAUGAGGAUCACCCAUGUGAUGGCCCUUGGCAGCGCUGAUUGAUGU [SSTheo B #29] | 65.6 nM |  | 167 nM |  | 182 nM
GUAAGACAUGAGGAUCACCCAUGUGUCGAUACCAGCCCUGCCUCUGGCCCUUGGCAGCGACUCGCACACCUCGCACUGCACAAGU [theeternabot_sameState_MS2_Theo_A_13] | 42.6 nM |  | 59.5 nM |  | 49 nM
AAUUAUCAGUCGGCCGCCACUGACACAUGAGGAUCACCCAUGUAACUUGGGUUAAAUUUACUGAACAGGACCGGGACAAAGGCUA [JR_ExcTryptoB_Sub009] | 114 nM |  | 193 nM | 203 nM | 
ACUCGGCAUCAUGAUACCAGAGAGCCCGAGAUGCCUUAACACAUGAGGAUCACCCAUGUACUCCCUUGGCAGCAUCAUGCACUAU [theeternabot_exclusion_MS2_Theo_B_31] | 16.6 nM |  | 29 nM |  | 22.7 nM
ACAUGAGGAUCACCCAUGUACAUGAGGGAAGGAGCGGUACAUGAGCCAGGUAGGUCGCCCAUGAGCAUCAGCCAUGUACAUCAGC [vv,mmullin] | 40.9 nM | 115 nM | 97.6 nM | 101 nM | 75.7 nM
UGUACUAUGUGAAGGAGCGAGAAUCCUACAUGAGGAUCACCCAUGUAAGAGCGAAAGCUCACUCAGGUAGGUCGCACAUAGUACU [#17 Same State - Arginine B] | 31.7 nM | 42.9 nM | 44.1 nM | 43.7 nM | 48.8 nM
AGCGACAUGCGUGAUACCAGCUACAUGAGGAUCACCCAUGUAAGUAGGAAACUACUGUGUAGCCCUUGGCAGCACAAUGCAUGUC [Exclusion - Theophylline B (Freestyle 24)] | 20.3 nM |  | 37.2 nM |  | 20 nM
AAAAUAAAGGCGGCCGCCACUAGAGUUAGGCAUAUGUACUGGGUAACAUGAGGAUCACCCAUGUAUAGGACCGGGCCAUAAUAAA [Same State - Tryptophan B (Freestyle 1)] | 51.7 nM | 39.9 nM | 46.2 nM | 33.4 nM | 36.5 nM
UAUUAUCAGUCGGCCGCCACUGUCACAUGAGGAUCACCCAUGUAACUUGGGUUAUAUUUAAUAUACAGGACCGGGACAAAGGCUA [JR_ExcTryptoB_Sub012] | 61.5 nM |  | 76.6 nM | 66.8 nM | 
UUUAUUAUUGACUCGUUAUUGUUUUUGGAUCGAGGACCGGUACGGCCGCCACUCGUGAUAUACAUGAGGAUCACCCAUGUUAGCA [JR_Nu_SSTryptoA_Sub020] | 19.3 nM |  | 22 nM | 17.2 nM | 
ACAAGAGGGAUGGAUACCAGCGACAUGAGGAUCACCCAUGUAUGAGGAUCAGCCAUGUUAUGCCCUUGGCAGCCACGAAGAUCAG [XXXMULLIN] | 27.1 nM | 25.1 nM | 32.8 nM | 104 nM | 21.6 nM
GAGCUGAUGUAGGCCGGAUAUCCGGGAGAUACCAGUACAGAAAUGUACCCUUGGCAGCUCUUUCUUACAUGAGGAUCACCCAUGU [Ex Theophylline A 27] | 11.5 nM | 13.1 nM | 15.4 nM | 19.1 nM | 13.4 nM
GCACAUGAGGAUCACCCAUGUAUUACUGAAGGAGCGAGACAGAACUCAGGUAGGUCGCAGACGGCGGAAUCGCCGACGACAUGGG [Exclusion Arginine A GF23] | 20.3 nM | 36.7 nM | 66.5 nM | 40.7 nM | 27.7 nM
GAGAGUGUGUGCGAAAGCACAGAUCUGGAAGGAGCGUAGAAAGAUACAGGUAGGUCGCCGGGACAUGAGGAUCACCCAUGUGUAU [ArgiA-ms2@63] | 38.9 nM | 37.7 nM | 52.6 nM | 35.8 nM | 34.2 nM
GACCUUGCCUGAAGGAGCGAGGUAAAUAGGGUUGAGCAUACAUGAGGAUCACCCAUGUGGCCUCAGGUAGGUCGCAGGUAGGACA [Exclusion Arginine B GF30] | 97.1 nM | 114 nM | 224 nM | 189 nM | 114 nM
AUUUAUUGUCGUGAUACCAGACAUACAUGAGGAUCACCCAUGUUAAGUAACAUUUUUUAGGUCCCUUGGCAGCACUUUUUAAUUA [JR_Nu_SSTheophyB_Sub018] | 30.2 nM |  | 36.1 nM |  | 25.4 nM

Sequence | apparent KD of MS2 coat protein (input ligand: arginine 13.2 mM) | apparent KD of MS2 coat protein (input ligand: none) | apparent KD of MS2 coat protein [1] | apparent KD of MS2 coat protein [2] | apparent KD of MS2 coat protein [3]
ACAUGAGGAUCACCCAUGUUCCUCGCCGAUACCAGUGAAGAAUUACGCCCUUGGCAGCGGAAUGAGUGUUUUGGAGAUGAGGUAC [6.aB] | 84.4 nM |  | 112 nM |  | 81 nM
AGGAAGACGAUGGAUACCAGACAACCAGGGAACAUGAGGAUCACCCAUGUGAUUGAAAGGGUCCCUUGGCAGCCAGAAGCCGUUG [theeternabot_sameState_MS2_Theo_B_31] | 68.5 nM |  | 173 nM |  | 130 nM
AACCAUCUCGGCGAUACCAGUGCCUACGAGUACAUGAGGAUCACCCAUGUAGGUGACCGACACCCUUGGCAGCGCGAUUGAGUCA [theeternabot_sameState_MS2_Theo_B_45] | 70.9 nM |  | 184 nM |  | 129 nM
CCUGAUAACUGAAGGAGCGAGAAACCCUACAUGAGGAUCACCCAUGUAUACACGGGAACUUCUCAGGUAGGUCGCAGUAUGUCGG [Rienat] | 71.2 nM | 80.2 nM | 106 nM | 145 nM | 93 nM
UGUAUGUGAUCUGAUACCAGAGAUGAUAACCUGAGGAUCACCCUGGUAAGGCGAAAGCCACUCCCUUGGCAGCAGAUCGCAUACU | 48.3 nM | 34.4 nM | 40.7 nM | 26.3 nM | 39 nM
CGCCACUCGAGUGAUCCUCACGAGUGGCUACGAGGACCGGUACGGCCGCCACUCGAAUUAACAUGAGGAUCACCCAUGUAAUCUA [Brourdmod08] | 30 nM |  | 200 nM | 322 nM | 
ACGCGUCAAGAGUAAAAUCCGUCAAGUGAUACCAGCCACAACGUAGGCCCUUGGCAGCACAUGAGGAUCACCCAUGUAAUAAGGA [Gedigerace] | 42.4 nM | 33.3 nM | 53.4 nM | 670 nM | 22.5 nM
UAUCGUCAGACGGCCGCCACUAGAACAUGAGGAUCACCCAUGUAGGCGGCCGAUUCCUCAUUAACUAGGACCGGGUCUGACGAAU [(Trp1)-(Ms2)-(T)'-(M)'-(Trp2)_Design11] | 11.5 nM |  | 15.9 nM | 9.76 nM | 
GCAACGCUGUCGGCCGCCACUUUUACAUUGGCCGUGCUGUCUCUACAUGAGGAUCACCCAUGUGGAAGGACCGGGACAGCACACU [Arzaleer] | 21.2 nM |  | 39.6 nM | 44.7 nM | 
CGUAUGUAGACGGCCGCCACUGGAACAAGAGGAUCACCCUUGUACAGGGUGGGACUAUCGAGAGUCAGGACCGGGUCUACAUACA [Tryp B Ex t2] | 112 nM | 150 nM | 190 nM | 140 nM | 19.7 nM
GACGGCUCGACGGCCGCCACUCCCUCCGACUGAAGGCACAGUGGACAUGAGGAUCACCCAUGUCCGAGGACCGGGUCGAUCCUGG [theeternabot_sameState_MS2_Trp_B_32] | 14.5 nM |  | 19.3 nM | 18.3 nM | 
GUAAUUUAUUGAAGGAGCGUCGAAAAUGGGUAAACAUGAGGAUCACCCAUGUAAAGGGAACGACAGGUAGGUCGCAAUAGGUUAC [AstromonsSSArgB#29] | 103 nM | 192 nM | 252 nM | 285 nM | 197 nM
AUAUUAGACCUGGAUACCAGCGACAUGAGGAUCACCCAUGUAUGUGCAUCAGCCAUGAUAUGCCCUUGGCAGCCACCGAGGUCGU [YYTMULLIN] | 14.1 nM |  | 17.9 nM |  | 15.1 nM
GCAAAGUGAUCGGCCGCCACUGCAAUGCUUAAUGGAGGUCCACAUGAGGAUCACCCAUGUCUUCCCAGGACCGGGAUCUCGAGUU [theeternabot_sameState_MS2_Trp_B_3] | 59 nM |  | 65.5 nM | 72.6 nM | 
UGGUAUGUAGGAAGGAGCGCAUACUUCACAUGAGGAUCACCCAUGUCGAGACGUGAGUCAGUGCAGGUAGGUCGCCUAGUUAUGA [Same State - Arginine B (Freestyle 22)] | 35.8 nM | 43 nM | 33.4 nM | 28.1 nM | 29 nM
AAACGUUGCUCAGAUACCAGACAUGAGGAUCACCCAUGUACCGAGGUACCCGAAAGGAAUGUCCCUUGGCAGCUGAGCAACGAAA [MAT - Exclusion Theophlline B - Mod of Eli - D23] | 14.6 nM |  | 19 nM |  | 10.2 nM
CGAGCUGACGGAAGGAGCGAAGCCUACUCGGUGUUCCCACAUGAGGAUCACCCAUGUGGGCUUCAGGUAGGUCGCCGAACAGUCG [Vecequlala] | 26.1 nM | 40.7 nM | 61 nM | 86.9 nM | 32.4 nM
ACAUGAGGAUCACCCAUGUGUGUAAGUCCUCGAGGACCGGUACGGCCGCCACUCGAACGAGUGUAACAUACUUGUUACAAGUAUG [SS Trp A s3] | 18.5 nM |  | 39.9 nM | 43.3 nM | 
